Test results: patent publication US20250282887A1 (Amgen, published 2025)
Numbering of substitutions follows the chain as printed.

T1: human MAGEB1 (human, UniProt P43366 1-347)
T1 construct: whole, on cells; Transfected into CHO cells with Myc/DDK tags
T1 sequence (looked up): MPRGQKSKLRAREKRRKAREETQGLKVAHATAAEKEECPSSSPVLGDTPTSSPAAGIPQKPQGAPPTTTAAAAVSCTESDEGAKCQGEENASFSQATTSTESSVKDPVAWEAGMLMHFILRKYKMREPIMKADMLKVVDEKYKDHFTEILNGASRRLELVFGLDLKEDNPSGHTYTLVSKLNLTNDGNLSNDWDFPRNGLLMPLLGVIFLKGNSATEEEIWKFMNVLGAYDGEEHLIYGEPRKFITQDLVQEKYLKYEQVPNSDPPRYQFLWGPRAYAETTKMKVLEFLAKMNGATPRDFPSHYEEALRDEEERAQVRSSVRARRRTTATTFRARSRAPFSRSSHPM

T2: Human MAGEB2 (Melanoma-associated antigen B2) (human, UniProt O15479 1-319)
T2 construct: Intracellular antigen detected by IHC in FFPE material: CHO cells transfected with human MAGEB2 (mCherry vector with Myc/DDK tags, or ORF without tags)
T2 sequence: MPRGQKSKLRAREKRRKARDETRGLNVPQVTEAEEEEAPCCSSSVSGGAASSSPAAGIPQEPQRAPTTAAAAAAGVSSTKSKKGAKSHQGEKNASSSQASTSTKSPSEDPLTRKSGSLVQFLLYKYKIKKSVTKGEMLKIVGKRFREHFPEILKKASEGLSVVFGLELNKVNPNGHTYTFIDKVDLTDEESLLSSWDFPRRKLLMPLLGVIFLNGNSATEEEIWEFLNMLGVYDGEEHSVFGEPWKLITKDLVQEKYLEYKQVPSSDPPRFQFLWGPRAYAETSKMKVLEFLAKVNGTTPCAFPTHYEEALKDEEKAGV

B1: 1I14 (antibody, V domains shown)
VH: QSVEESGGRLVTPGTPLTLTCTISGFSLSSYAMSWVRQAPGKGLEWIGSIGGGGSAVYASWAKGRFTISKTSTTVDLRITSPTTEDTAMYFCGRGFYSIDLWGPGTLVTVSS
VL: DVVMTQTPASVEATVGGTVTIKCQSSQSVYDNNALAWYQQNAGQRPRLLIYGASTLASGVPSRFSASGSGTEFTLTISDLECADAATYYCQCTYYVSSYQNDFGGGTEVVVKG
notes: also called MAGE-B2 (1i14)
B2: 1C3 (antibody, V domains shown)
VH: QSLEESGGGLVQPEGSLTLTCTAFGVTLTNYYICWVRQAPGKGLEWVGCIDNANGRTYYASWAKGRFTISKTSSTTGTLQMTSLTAADTATYFCARSLATPLWGPGTLVTVSS
VL: DIVMTQTPSSVEAAVGGTVTIKCQASQNISSYLAWYQQKPGQPPKLLIYRASTLASGVPSRFKGSGSGTQFTLTISDLECADAATYYCQSYDDSRSSNFFYAFGGGTEVVVKG
notes: also called MAGE-B2 (IC3); anti-MAGEB2 antibody 1C3
B3: 4G17 (antibody, IgG1, V domains shown)
VH: B2 VH with F24S, T29S, V47I, A53V
VL: DIVMTQTPASVEAAVGGTVTIKCQASQNIDSYLAWYQQKPGQPPKLLIYRASTLASGVPSRFKGSGSGTEFTLTISDLECADAATYYCQSYDDSRSSSFFYGFGGGTEVVVK
notes: Rabbit monoclonal IgG1; Tested as supernatant and as small batch purified antibody; also called MAGE-B2 (4G17); anti-MAGEB2 antibody 4G17
B4: 1J15 (antibody, IgG1, V domains shown)
VH: B2 VH with V26F, T29N, V47I, G48A, G77V, A99S
VL: B3 VL with N28S, D30S, A34S, K63R, E70Q, R95S, S96D, S97N, S98N, K112R
notes: Rabbit monoclonal IgG1; Tested as supernatant and as small batch purified antibody; also called MAGE-B2 (IJ15); anti-MAGEB2 antibody 1J15

target: T1, human MAGEB1; assay: IHC, FFPE CHO cells transfected with human MAGEB1
Excerpt: Negative control cells included parental Chinese hamster ovary (CHO) cells, CHO cells stably transfected with mCherry Vector Control (minus Myc/DDK tags), CHO cells stably transfected with mCherry-human DCAF4L2 (plus Myc/DDK tags). The cross-reactivity control cells included CHO cells transfected with mCherry Vector Control (plus Myc/DDK tags) with one of the human MAGE-B or MAGE-A family members (MAGEA1, MAGEA2, MAGEA3, MAGEA4, MAGEA5, MAGEA6, MAGEA8, MAGEA9, MAGEA11, MAGEA12, MAGEB1, MAGEB3, MAGEB4, MAGEB5, MAGEB6, MAGEB10, MAGEB16, MAGEB17, MAGEB18). Positive control cell lines included CHO cells transfected with mCherry Vector (plus Myc/DDK tags) with human MAGE-B2 or CHO cells transfected with mCherry Vector (open reading frame (ORF); minus Myc/DDK tags) with human MAGEB2, and thirteen human cancer cell lines with known endogenous RNA expression level of MAGEB2 (U266B1, T98G, KMM-1, U20S, CFPAC-1, SCaBER, UACC-257, CFPAC-1, VMRC-LCD, NCI-H1703, UM-UC-3, NCI-H1395, NCIH82).
(§1) FFPE samples were sectioned at 4 μm and mounted on positive charged glass slides. After mounting, paraffin sections were air-dried at room temperature. FFPE TMA samples were received as freshly sectioned and mounted on glass slides. The fully automated IHC assay was performed on a Discovery Ultra Stainer (Ventana Medical Systems, Tucson, AZ) using Ventana Anti-Rabbit HQ (cat #760-4815), Ventana Anti-HQ HRP (cat #760-4820), and Ventana Antibody Diluent with Casein (cat #760-219) (Ventana Medical Systems, Tucson, AZ). The slides were baked on the Discovery Ultra Stainer at 60° C. for 8 minutes, de-paraffinized with Ventana Discovery wash (cat #950-510) for 3 cycles (8 minutes each) at 69° C., and underwent cell conditioning (target retrieval) at 95° C. for 16 minutes (for cell arrays) or 32 minutes (tissues or TMAs) in CC1 buffer (cat #950-500). Following this, slides were incubated with Background Sniper (cat #BS966M, Biocare Medical, Pacheco, CA) in a Ventana Option Prep kit (cat #771-751) for 28 minutes, incubated with CM inhibitor (a part of the Ventana DAB kit cat #760-159) for 12 minutes, and incubated for 1 h at RT with MAGE-B2 antibody diluted with Ventana diluent with Casein in a Ventana Prep kit (cat #770-001) (working concentration at 0.1 μg/ml for cell pellet, or 1-5 ug/ml for tissues) or with a matched concentration of isotype control Rabbit IgG1 antibody.

Row | binding result | Binder
1 | no binding (tested: 0.1 µg/ml) | B1
2 | no binding (tested: 0.1 µg/ml) | B2
3 | no binding (tested: 0.1 µg/ml) | B3
4 | no binding (tested: 0.1 µg/ml) | B4

target: T2, Human MAGEB2 (Melanoma-associated …); assay: IHC on FFPE U266B1 cells (endogenous MAGEB2)
Description: as §1, with “antibody. Following this, slides were incubated with the Ventana Anti-Rabbit HQ (cat #760-4815) for 28 minutes at RT, Ventana Anti-HQ HRP (cat #760-4820) for 28 minutes at RT, and signals detected with Ventana DAB chromogen kit (cat #760-159) for 5 minutes at RT. Slides were counterstained with Ventana Hematoxylin II (cat #5266726001) for 8 minutes and Ventana Bluing reagent (cat #526676900) for 4 minutes. Slides were coverslipped and digitized using an Aperio AT2 scanner (Leica Biosystems Inc, Buffalo Grove, IL).” for “antibody.”

Row | IHC % Frequency | IHC Intensity | Binder
5 | 90% | 3 | B1
6 | 90% | 2 | B2
7 | 80% | 2 | B3
8 | 90% | 1 | B4
